Experimental data taken from PMC10527703 (Structure (London, England : 1993), 2023).

Target: the molecule itself
Assay: ThT fluorescence aggregation + negative-stain TEM

Row | Protein | binding result
1 | KDNIQHVPGGGSVQIVYK (peptide, UniProt P10636-8 294-311, looked up) [R2R3_2Q] | binds
2 | TENLKHQPGGGQVQIVYQ (peptide, UniProt P10636-8 263-274, looked up) [R1R3_23Q] | binds
3 | TENLQHQPGGGQVQIVYK (peptide, UniProt P10636-8 263-274, looked up) [R1R3_12Q] | binds
4 | TENLQHQPGGGKVQIVYQ (peptide, UniProt P10636-8 263-274, looked up) [R1R3_13Q] | binds
